Measurements reported in patent US20160115199A1 (AADIGEN, published 2016).
Where no end group is shown, it is not given here.

B1: PC4 cyclic peptide (RWTEWEWW) (peptide)
peptide: RWTEWEWW
modifications: also: cyclic, mode of cyclisation not given here
B2: C4 peptide (KKQVRMAHLVLT) (peptide)
peptide: KKQVRMAHLVLT
modifications: also: FITC or Cy5 label, position not given here

Legend:
HIV integrase = HIV integrase (HIV-1, UniProt P03367 1160-1447); assay: cell-based or functional assay
cdk2/cyclin A complex = cdk2/cyclin A complex (UniProt P24941 1-298; P20248 1-432); assay: cell-based or functional assay

Row | Binder | IC50 of viral replication (RT activity) on PBMC infected by HIV-1 LAI, PC4D delivered by Short 4 (HIV integrase) [pM] | IC50 of viral replication (RT activity) on PBMC infected by HIV-1 LAI, PC4D delivered by VEPEP-3i (HIV integrase) [pM] | IC50 of viral replication (RT activity) on PBMC infected by HIV-1 LAI, PC4D delivered by VEPEP-3j (HIV integrase) [pM] | IC50 of cell proliferation, Hela cells, C4 delivered by VEPEP-4 (cdk2/cyclin A complex) [pM] | IC50 of cell proliferation, MCF7 cells, C4 delivered by VEPEP-4 (cdk2/cyclin A complex) [pM]
1 | B1 | 370 | 240 | 170 |  | 
2 | B2 |  |  |  | 50000 | 60000
